Measurements published in patent publication US20060045883A1, “Anti-cancer vaccines” (priority 2004, published 2006).

Molecular target: HLA-A2.1 (HLA-A*0201) on the surface of T2 cells (human)

Binder: KLGEFYNQMM (modifications not checked) [Influenza B nucleoprotein peptide (aa 85-94; Flu), P04665 85-94]
- Median Channel of Fluorescence of HLA-A2 Expression on T2: 194
